T1: monomeric C-reactive protein (mCRP) (Homo sapiens, UniProt P02741 P02741:19-224)
T1 sequence: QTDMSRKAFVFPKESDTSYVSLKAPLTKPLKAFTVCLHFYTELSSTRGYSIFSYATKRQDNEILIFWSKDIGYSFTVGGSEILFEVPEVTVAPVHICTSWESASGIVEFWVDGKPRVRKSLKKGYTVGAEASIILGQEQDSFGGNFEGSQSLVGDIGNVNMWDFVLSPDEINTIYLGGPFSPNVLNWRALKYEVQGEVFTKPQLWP

B1: AmC4 (ssDNA)
DNA: GCACCAGCATATTCGATTGGGAGGTGTGAACGTTATGTGGTAGAGAGATGGGTGGTGGGGCTAGTAGGTGCATCAG
B2: AmC2 (ssDNA)
DNA: GCACCAGCATATTCGATTGTGGCGGGTTGTGAAGGGTGGAGTATGGTCGTGTTGGTTGGGCTAGTAGGTGCATCAG
B3: AmC3 (ssDNA)
DNA: GCACCAGCATATTCGATTGGGAGCGCGGGGGAGAGTAGTGGGGAACGGTGGAGAGTTGGGCTAGTAGGTGCATCAG

Key:
[1] = biological target: T1, monomeric C-reactive protein (mCRP); assay: SPR; 200 nM aptamer; 75 mM HEPES, 0.15 M NaCl pH 7.4
Method: Regeneration of the CM4 chip flow cells was achieved by applying 10 mM NaOH with 120 sec followed by several washing steps with 1× aptamer binding buffer. SPR binding concentrations were obtained as a resonance unit RU (1 RU=1 pg/mm² of the sensor surface) by calculating the binding units of antibody/aptamer and mCRP and correcting for the background signal observed in the reference channel.

[2] = biological target: T1, monomeric C-reactive protein (mCRP); assay: SPR; mCRP immobilized on CM4, pCRP reference cell; 1:1 Langmuir; ka 4.242E+03 1/Ms, kd 6.41E-04 1/s; aptamer binding buffer pH 7.4
Method: On the contrary the aptamer was very stable regeneration steps and therefore a multicycle kinetics analysis was performed for the evaluation of reaction kinetics of the aptamer. Pentameric CRP is immobilized in the reference flow cell and mCRP in the active cell at a low immobilization level (70 RU) to achieve an optimal kinetic analysis on CM4 biosensor chips. The kinetic analysis was performed with increasing concentrations of aptamer AmC2 (0-500 nM) applying for 200 sec of association and 200 sec dissociation at flow rate of 300 μl/min. A regeneration step of 120 sec using 1 M NaOH was applied between the injections of different concentrations. The Biacore evaluation software was used in the analysis for estimation of affinity rate constant by fitting the obtained binding sensogram using standard mathematical 1:1 Langmuir model.
The kinetic parameters of the antibody 3H12 and aptamer AmC2 were evaluated using the inbuilt kinetics modules of the Biacore T200 SPR (FIG. 2). […] The strength of the binding interaction between the ligand and target analyte can be measured based on the affinity constant value KD. […] The binding kinetics of the ligand to the target analyte is a time dependent interaction and in SPR this is measured as the association and dissociation constants (ka and kd). […]

Binder | binding result [1] | Kd [2] [nM]
B1 | binds | –
B2 | – | 151
B3 | binds | –

Source: patent US20240036057A1, “DNA APTAMERS FOR THE DETECTION OF MONOMERIC CRP” (Universiteit Hasselt, published 2024)
